Assay results taken from patent publication EP2649983A1 (Lipotec, S.A., dated 2013).

Molecular target: SNARE complex in cells of a human neuroblastoma cell line (human, UniProt P60880 1-206)
Assay: cell-based or functional assay

Chain of SNARE complex in cells of a human neuroblastoma cell line (P60880 whole entry, one chain of several): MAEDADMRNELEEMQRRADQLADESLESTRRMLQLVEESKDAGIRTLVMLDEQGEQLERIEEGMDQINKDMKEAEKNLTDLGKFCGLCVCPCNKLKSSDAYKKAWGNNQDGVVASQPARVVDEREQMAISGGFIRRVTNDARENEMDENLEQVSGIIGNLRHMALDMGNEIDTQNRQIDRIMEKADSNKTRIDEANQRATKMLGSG

| Binder | % RELEASED NO… (Average), dose 1 µM | % RELEASED NO… (Average), dose 10 µM | % RELEASED NO… (Average), dose 100 µM | % RELEASED NO… (Average), dose 500 µM | % RELEASED NO… (Average), dose 1000 µM |
| --- | --- | --- | --- | --- | --- |
| Ac-EHLKQWM-NH2 [Ac-SEQ ID NO:1-NH2] | 96.1% | 93.1% | 79.6% | 49.1% | 42.5% |
| Ac-DHFQQRM-NH2 [Ac-SEQ ID NO:24-NH2] | 90.6% | 97.1% | 89% | 78.1% | 67.9% |
| Ac-DHFLDWM-NH2 [Ac-SEQ ID NO:25-NH2] | 99.6% | 94.5% | 74.8% | 48.1% | 41% |
| Ac-EDLKRWM-NH2 [Ac-SEQ ID NO:14-NH2] |  | 85% | 86% |  | 45.8% |
